Data from patent US20210337838A1, “RECOMBINANT EXPRESSION OF FUMONISIN AMINE OXIDASE” (priority 2018, published 2021).
Changes are numbered by the printed parent chain. Names may count otherwise. Like-named read-outs stand apart in the source and are kept apart here.

How the values were obtained:
AnFAO_15309 [1] = biological target: T1, AnFAO_15309 (Aspergillus niger, UniProt A2R252); experiment: Kinetic analysis of recombinant AnFAO_15309; format: biochemical
Experimental: (§1) Absorbance was monitored at 571 nm every 10 mins for 1 hr. A standard curve consisting of 0-10 μM H2O2 was included to determine the absorbance for every μmol of H2O2 generated by the reaction.
The resulting mixture was twice extracted with equal volumes of ethyl acetate, dried, and re-suspended in reaction buffer.

AnFAO_15309 [2] = biological target: T1, AnFAO_15309; format: biochemical; settings: 20 nM enzyme, 50 μM substrate, pH 7.0, 1 hr
Experimental: as §1

[3] = tested on: fumonisin deamination activity from A. niger culture supernatants; experiment: Fumonisin chemotype preference of deamination activity, reverse-phase LC-MS; format: biochemical, Aspergillus niger; settings: for initial conversion rate of intact to deaminated fumonisin: FB1 and FB2 co-incubated at 37° C. with active sample following high-resolution ion exchange, n=2
Experimental: After each step, protein fractions were assayed for deamination activity by monitoring their ability to convert intact FB2 into FPy2 via reverse-phase liquid chromatography/mass spectrometry (LC-MS), as shown in FIG. 2. In particular, all MS data were collected with a Q-Exactive™ Quadrupole Orbitrap™ mass spectrometer (Thermo Scientific, MA, USA) coupled to an Agilent 1290 ultra-high-performance liquid chromatography (UHPLC) system. Fumonisins were resolved on a Zorbax™ Eclipse Plus Rapid Resolution High Definition (RRHD) C18 column (2.1×50 mm, 1.8 μm; Agilent Technologies, CA, USA), maintained at 35° C. The mobile phase was comprised of water with 0.1% formic acid (A), and acetonitrile with 0.1% formic acid (B) (Optima grade, Fisher Scientific, NJ, USA). The gradient consisted of 0% B for 0.5 min before increasing to 100% over 3 min, held at 100% for 2.5 min and reduced to 0% over 0.5 min. The fumonisins were detected in negative ionization mode using the following electrospray conditions: capillary voltage, 4.0 kV; capillary temperature, 400° C.; sheath gas, 17.00 units; auxiliary gas, 8.00 units; probe heater temperature, 450° C.; S Lens RF level, 45.00. The data-dependent acquisition method involved a full MS scan at 17,500 resolution over a scan range of 140-760 m/z; automatic gain control (AGC) target and maximum injection time (max IT) was 5×10^6 and 64 ms, respectively. The five highest intensity ions from the full scan (excluding isotopes) were sequentially selected using a 1.2 m/z isolation window and analyzed at a resolution of 17,500; AGC target, 1×10^5; max IT, 64 ms; normalized collision energy (NCE) 30; threshold intensity 9.1×10^4; and dynamic exclusion of 1.5 s. Fumonisins were detected by accurate mass (±5 ppm) and retention time (±0.1 min) and verified by MS/MS.
All samples assayed during protein purification were incubated at 37° C. with 1 μM FB2 (Sigma) unless stated otherwise. Reactions were terminated via addition of a 10-fold volume excess of 50% (v:v) methanol in water prior to reverse-phase LC/MS analysis represented in FIG. 2.

[4] = substrate: CCCC[C@@H](C)[C@@H](O)[C@@H](O)C[C@@H](C)C[C@H](O)CCCC[C@@H](O)C[C@H](O)[C@H](C)N; experiment: purified protein, by the assay type; settings: other: recombinant AnFAO_15309; pH 7.0
[5] = substrate: CCCCCCCCCCCCCCC[C@@H](O)[C@@H](N)CO; experiment: purified protein, by the assay type; settings: other: recombinant AnFAO_15309; pH 7.0
[6] = Circular dichroism thermal denaturation; format: physicochemical; settings: 0.3 mg/ml, 20 mM Tris-HCl (pH 7.4), 50 mM NaCl, 0.75 mM DTT, monitored at 222, 20 to 95° C.
Experimental: (§2) Activity was measured via reverse-phase LC/MS analysis. […] All proteins were scanned at a concentration of 0.3 mg/ml in buffer containing 20 mM Tris-HCl (pH 7.4), 50 mM NaCl and 0.75 mM DTT. Thermal denaturation was monitored at […] with a temperature scan ranging from 20 to 95° C., increasing by 1° C. per minute with data collection every 30 seconds. Baseline corrected data were converted from millidegrees to mean residue ellipticity, and thermal denaturation curves were produced by nonlinear regression in Graphpad Prism.

[7] = Amplex red assay of AnFAO homolog clones; format: biochemical
Excerpt: Seven of the AnFAO homologs were synthesized and cloned into the MBP-TEV vector for recombinant expression in E. coli.

[8] = NaCl dependence of fumonisin deamination activity, Amplex red; format: biochemical
Experimental: (§3) 98 μL of this solution was added to 2 μL of a stock of FB2 in a microfuge tube (2.5 mM) and incubated at 30° C. for 30 mins. At the end of the incubation time, 20 μL of the reaction was diluted with 80 μL of 50 mM HEPES pH 7.0, 150 mM NaCl and 100 μL of this was added in triplicate to wells of a 96-well microplate. 100 μL of Amplex™ red reaction buffer consisting of 50 mM HEPES pH 7.0, 150 mM NaCl, 200 μM Amplex™ red, 2 U/ml horseradish peroxidase was immediately added to each well and absorbance was measured at 571 nm. Rates were calculated based on an H2O2 standard curve and the incubation time taking into account the dilution factors. […] 100 μL of protein sample was added to wells in triplicate in a 96-well microplate. 100 μL of Amplex™ red reaction buffer consisting of 50 mM HEPES pH 7.0, 200 μM Amplex™ red, 2 U/ml horseradish peroxidase and 50 μM FB2 was then added to each well and absorbance was monitored at 571 nm every 10 mins for 1 hr. A standard curve consisting of 0-10 μM H2O2 was included to determine the absorbance for every pmol of H2O2 generated by the reaction.

[9] = Experimental: as §3
[10] = Ethanol tolerance of deamination activity, reverse phase LC/MS
[11] = 1 μM enzyme, room temperature, 16 h, corn material in water
Experimental: Following incubation, 700 μls of extraction solution (78% acetonitrile, 2% ethyl acetate) was added to each sample and incubated at 37° C. with shaking for 45 minutes. This mixture was then centrifuged at 20,000×g and 400 μls of the cleared supernatant was mixed with an equal volume of 50% methanol. Samples were then analyzed for fumonisin contamination by reverse phase HPLC-MS as previously described.

[12] = FB2 deamination by purified recombinant AnFAO, reverse-phase LC/MS; format: biochemical; settings: 6 nM enzyme, 1 μM FB2, 0.1 mg/ml catalase, 1 h at 37° C.
Experimental: In particular, all MS data were collected with a Q-Exactive™ Quadrupole Orbitrap™ mass spectrometer (Thermo Scientific, MA, USA) coupled to an Agilent 1290 ultra-high-performance liquid chromatography (UHPLC) system. Fumonisins were resolved on a Zorbax™ Eclipse Plus Rapid Resolution High Definition (RRHD) C18 column (2.1×50 mm, 1.8 μm; Agilent Technologies, CA, USA), maintained at 35° C. The mobile phase was comprised of water with 0.1% formic acid (A), and acetonitrile with 0.1% formic acid (B) (Optima grade, Fisher Scientific, NJ, USA). The gradient consisted of 0% B for 0.5 min before increasing to 100% over 3 min, held at 100% for 2.5 min and reduced to 0% over 0.5 min. The fumonisins were detected in negative ionization mode using the following electrospray conditions: capillary voltage, 4.0 kV; capillary temperature, 400° C.; sheath gas, 17.00 units; auxiliary gas, 8.00 units; probe heater temperature, 450° C.; S Lens RF level, 45.00. […] The five highest intensity ions from the full scan (excluding isotopes) were sequentially selected using a 1.2 m/z isolation window and analyzed at a resolution of 17,500; AGC target, 1×10^5; max IT, 64 ms; normalized collision energy (NCE) 30; threshold intensity 9.1×10^4; and dynamic exclusion of 1.5 s. Fumonisins were detected by accurate mass (±5 ppm) and retention time (±0.1 min) and verified by MS/MS. […]

[13] = Fumonisin deamination activity of AnFAO with or without excess FAD; format: biochemical; settings: enzyme dialyzed in 20 mM MES (pH 6), 150 mM NaCl with additional 50 μM FAD
Excerpt: The whole mass of AnFAO following denaturation and LC-MS analysis was 51,320.70 Da, which matches the predicted mass of the apo-enzyme (51,320.97 Da) as shown in FIG. 12D. […] AnFAO also lacked the requisite Histidine or Tyrosine residues for covalent 6α-linkages to the FAD backbone, as observed in other covalent flavoproteins (Heuts et al., 2009).

[14] = Effect of temperature on fumonisin deamination activity, reverse-phase LC/MS; format: biochemical; settings: 6 nM enzyme
Experimental: as §2

CCCC[C@@H](C)[C@@H](O)[C@@H](O)C[C@@H](C)C[C@H](O)CCCC[C@@H](O)C[C@H](O)[C@H](C)N [hFB1]
fold change (efficiency compared to FB2) (AnFAO_15309 [1]; kcat/KM relative to FB2 = 1.0): 4.6 fold | kcat (AnFAO_15309 [1]; recombinant AnFAO_15309): 0.298 s⁻¹

CCCC[C@@H](C)[C@@H](OC(=O)CC(CC(=O)O)C(=O)O)[C@H](C[C@@H](C)C[C@H](O)CCCCCC[C@@H](O)[C@H](C)N)OC(=O)CC(CC(=O)O)C(=O)O (some centres unmarked) [FB3]
relative activity, relative to FB3 (100% activity) (AnFAO_15309 [2]): 100%

Fumonisin B1 [FB1]
initial conversion rate of intact to deaminated fumonisin [3]: 2.1±0.1 % hr^−1 | fold change (efficiency compared to FB2) (AnFAO_15309 [1]; kcat/KM relative to FB2 = 1.0): 0.3 fold

NCCCCNCCCN [spermidine]
relative activity, relative to FB3 (100% activity) (AnFAO_15309 [2]): 1.4%

NCCCC[C@H](N)C(=O)O [lysine]
relative activity, relative to FB3 (100% activity) (AnFAO_15309 [2]): 6.3%

NCCc1c[nH]c2ccc(O)cc12 [serotonin]
relative activity, relative to FB3 (100% activity) (AnFAO_15309 [2]): 3.7%

NCCCNCCCCNCCCN [spermine]
relative activity, relative to FB3 (100% activity) (AnFAO_15309 [2]): 1.9%

CCCN [propylamine]
relative activity, relative to FB3 (100% activity) (AnFAO_15309 [2]): 5.6%

CCCCCCCCCCCCCCC[C@@H](O)[C@@H](N)CO [sphinganine]
fold change (efficiency compared to FB2) (AnFAO_15309 [1]): 16.6 fold | kcat (AnFAO_15309 [1]; recombinant AnFAO_15309): 0.612 s⁻¹

NCc1ccccc1 [benzylamine]
relative activity, relative to FB3 (100% activity) (AnFAO_15309 [2]): 1.4%

CCCC[C@@H](C)[C@@H](OC(=O)C[C@@H](CC(=O)O)C(=O)O)[C@H](C[C@@H](C)CCCCCC[C@@H](O)C[C@H](O)[C@H](C)N)OC(=O)C[C@@H](CC(=O)O)C(=O)O [FB2, fumonisin B2]
initial conversion rate of intact to deaminated fumonisin [3]: 24.3±1.5 % hr^−1 | chemotype preference for FB2 compared to FB1 ([3]; co-incubation of FB1 and FB2 at 37° C.): order of magnitude | fold change (efficiency compared to FB2) (AnFAO_15309 [1]; kcat/KM relative to FB2 = 1.0): 1.0 fold | Km (AnFAO_15309 [1]; recombinant AnFAO_15309): 195 µM | kcat (AnFAO_15309 [1]; recombinant AnFAO_15309): 0.228 s⁻¹ | efficiency at deaminating FB2 compared to FB1 (AnFAO_15309 [1]; relative to FB1): 3.2 fold | increase in catalytic efficiency (kcat) FB2 vs. FB1 (AnFAO_15309 [1]; relative to FB1): ~1.6 fold | stronger affinity (KM) FB2 vs. FB1 (AnFAO_15309 [1]; relative to FB1): ~2 fold

N[C@H]1C(O)O[C@H](CO)[C@@H](O)[C@@H]1O (some centres unmarked) [glucosamine]
relative activity, relative to FB3 (100% activity) (AnFAO_15309 [2]): 1.2%

NCCc1ccc(O)c(O)c1 [dopamine]
relative activity, relative to FB3 (100% activity) (AnFAO_15309 [2]): 9.7%

NCCc1ccc(O)cc1 [tyramine]
relative activity, relative to FB3 (100% activity) (AnFAO_15309 [2]): 5.8%

B1: AnFAO_15309 (Aspergillus niger CBS 513.88) (protein)
chain: MSVSNDPTTKLYDAVIVGAGLSGLQAAHSIQAAGFSVCILEATDRMGGKTLTVKSSEKGYNDLGAAWVNDTNQTEIFKLHQRYGLDGVVQYTCGDDILESGEGVIRKIPYGLPLTGLPKKLLDILRIESSRLDLDDPTSFPGATEVDNLTFRDFCVEKTGSEDVIHITDAISTALLGLNSNELSALYMLYYFKSGSGIDNLLSDERDGAQYLRTRQGTQTIARKMADELTQSDIFLGMPVTSINQTDADAHCVVQTLDGSSFRCRRVIVSIPTTLYRSVSFHPPLPHAKQVLSDHTIMGYYSKVIFIFKEPWWRDAGLTGIVNCAGGPITFTRDTSVPTDDQWSITCFMVGSRGRAWSKLSKDDRYSQVWEQFRRCFEEFVENIPEPVNTLEMEWSKEPYFLGAPCPAMIPGLLTTAGSDLAAPHGKVHFIGTETSTVWRGYMEGAIRAGQRGGAEVVTALQED
Km [4]: 55.2 µM | kcat [4]: 0.298 s⁻¹ | kcat/Km [4]: 5400 M⁻¹ s⁻¹ | Km [5]: 31.4 µM | kcat [5]: 0.612 s⁻¹ | kcat/Km [5]: 19000 M⁻¹ s⁻¹

B2: AnFAO_10927: AnFAO homolog clone, SEQ ID NO: 27 (protein)
chain: B1 chain with M46V, T230S, Q255K, N323D, C376F, V388A
modifications: Aspergillus niger
melting temperature [6]: 76 °C | activity compared to 15309 ([7]; 80 nM enzyme, 25 μM FB1, pH 7): 31%

B3: AnFAO_6142: AnFAO homolog clone, SEQ ID NO: 28, identical to AnFAO_10929; substitutions M46V, R82Q, V267L vs AnFAO_15309 (protein)
chain: B1 chain with M46V, R82Q, V267L
modifications: Aspergillus niger
notes: substitutions M46V, R82Q, V267L vs AnFAO_15309
melting temperature [6]: 76 °C | activity compared to AnFAO_15309 (fold) ([7]; 80 nM enzyme, 25 μM FB1, pH 7): 2.5 × | relative activity ([7]; relative to AnFAO_15309 = 1): (relative activity = 2.5):

B4: AnFAO_15309 (protein)
chain: B1 chain
modifications: codon-optimized; AnFAO_15309 codon optimized for Saccharomyces cerevisiae
of maximum activity at 0 mM NaCl ([8]; 0 mM NaCl): 70% | NaCl concentration of optimal activity ([8]; 50 mM HEPES pH 7.0, FB2): 50 mM | of maximum activity at 1 M NaCl ([8]; 1 M NaCl): 66% | optimal pH of activity ([9]; 300 nM enzyme, FB2, 30° C., 30 mins): 6 | activity remaining at pH 3.5 ([9]; Citrate pH 3.5): ca. 20% | activity remaining at pH 9.0 ([9]; Pyrophosphate pH 9): ca. 30% | activity remaining at 5% EtOH ([10]; 10 nM enzyme, 1 μM FB2, 30 minutes at 37° C., 5% EtOH): 71% | activity remaining at 10% EtOH ([10]; 10 nM enzyme, 1 μM FB2, 30 minutes at 37° C., 10% EtOH): 43% | activity remaining at 20% EtOH ([10]; 10 nM enzyme, 1 μM FB2, 30 minutes at 37° C., 20% EtOH): 12% | deamination activity at 30% EtOH ([10]; 30% EtOH): Negligible amounts | deamination activity at 40% EtOH ([10]; 40% EtOH): Negligible amounts | melting temperature [6]: 71 °C | intact fumonisins remaining after treatment [11]: no intact fumonisins remained | intact fumonisins remaining after treatment ([11]; listed as AnFAO): No intact fumonisin remained | conversion of FB2 into FPy2 [12]: Full conversion | change in fumonisin deamination activity with additional FAD [13]: No difference | optimal temperature of FB2 deamination ([14]; 2 μM FB2): 50 °C | of maximal activity at 21° C. ([14]; 2 μM FB2, 21° C.): ca. 35% | of maximal activity at 60° C. ([14]; 2 μM FB2, 60° C.): 52% | activity at 95° C. ([14]; 2 μM FB2, 95° C.): No activity

B5: AnFAO_7097: AnFAO homolog clone, SEQ ID NO: 29 (protein)
chain: B1 chain with M46V, R82Q, N323D, F377L, E379G, V388A, A417T
modifications: Aspergillus niger
activity compared to 15309 ([7]; 80 nM enzyme, 25 μM FB1, pH 7): 27%
